B1: CFP–TorR / YFP–TorR, phosphorylated (natural protein)
chain: MPHHIVIVEDEPVTQARLQSYFTQEGYTVSVTASGAGLREIMQNQSVDLILLDINLPDENGLMLTRALRERSTVGIILVTGRSDRIDRIVGLEMGADDYVTKPLELRELVVRVKNLLWRIDLARQAQPHTQDNCYRFAGYCLNVSRHTLERDGEPIKLTRAEYEMLVAFVTNPGEILSRERLLRMLSARRVENPDLRTVDVLIRRLRHKLSADLLVTQHGEGYFLAADVC
modifications: phosphorylated in vitro with phosphoramidate and MgSO4 (conserved aspartate of the receiver domain; residue number not given)
B2: CFP–QseB / YFP–QseB, phosphorylated (natural protein)
chain: MRILLIEDDMLIGDGIKTGLSKMGFSVDWFTQGRQGKEALYSAPYDAVILDLTLPGMDGRDILREWREKGQREPVLILTARDALAERVEGLRLGADDYLCKPFALIEVAARLEALMRRTNGQASNELRHGNVMLDPGKRIATLAGEPLTLKPKEFALLELLMRNAGRVLSRKLIEEKLYTWDEEVTSNAVEVHVHHLRRKLGSDFIRTVHGIGYTLGEK
modifications: phosphorylated in vitro with phosphoramidate and MgSO4 (conserved aspartate of the receiver domain; residue number not given)
B3: CFP–BaeR / YFP–BaeR, phosphorylated (natural protein)
chain: MTELPIDENTPRILIVEDEPKLGQLLIDYLRAASYAPTLISHGDQVLPYVRQTPPDLILLDLMLPGTDGLTLCREIRRFSDIPIVMVTAKIEEIDRLLGLEIGADDYICKPYSPREVVARVKTILRRCKPQRELQQQDAESPLIIDEGRFQASWRGKMLDLTPAEFRLLKTLSHEPGKVFSREQLLNHLYDDYRVVTDRTIDSHIKNLRRKLESLDAEQSFIRAVYGVGYRWEADACRIV
modifications: phosphorylated in vitro with phosphoramidate and MgSO4 (conserved aspartate of the receiver domain; residue number not given)
B4: CFP–KdpE / YFP–KdpE, phosphorylated (natural protein)
chain: MTNVLIVEDEQAIRRFLRTALEGDGMRVFEAETLQRGLLEAATRKPDLIILDLGLPDGDGIEFIRDLRQWSAVPVIVLSARSEESDKIAALDAGADDYLSKPFGIGELQARLRVALRRHSATTAPDPLVKFSDVTVDLAARVIHRGEEEVHLTPIEFRLLAVLLNNAGKVLTQRQLLNQVWGPNAVEHSHYLRIYMGHLRQKLEQDPARPRHFITETGIGYRFML
modifications: phosphorylated in vitro with phosphoramidate and MgSO4 (conserved aspartate of the receiver domain; residue number not given)
B5: CFP–CpxR / YFP–CpxR, phosphorylated (natural protein)
chain: MNKILLVDDDRELTSLLKELLEMEGFNVIVAHDGEQALDLLDDSIDLLLLDVMMPKKNGIDTLKALRQTHQTPVIMLTARGSELDRVLGLELGADDYLPKPFNDRELVARIRAILRRSHWSEQQQNNDNGSPTLEVDALVLNPGRQEASFDGQTLELTGTEFTLLYLLAQHLGQVVSREHLSQEVLGKRLTPFDRAIDMHISNLRRKLPDRKDGHPWFKTLRGRGYLMVSAS
modifications: phosphorylated in vitro with phosphoramidate and MgSO4 (conserved aspartate of the receiver domain; residue number not given)
B6: CFP–CreB / YFP–CreB, phosphorylated (natural protein)
chain: MQRETVWLVEDEQGIADTLVYMLQQEGFAVEVFERGLPVLDKARKQVPDVMILDVGLPDISGFELCRQLLALHPALPVLFLTARSEEVDRLLGLEIGADDYVAKPFSPREVCARVRTLLRRVKKFSTPSPVIRIGHFELNEPAAQISWFDTPLALTRYEFLLLKTLLKSPGRVWSRQQLMDSVWEDAQDTYDRTVDTHIKTLRAKLRAINPDLSPINTHRGMGYSLRGL
modifications: phosphorylated in vitro with phosphoramidate and MgSO4 (conserved aspartate of the receiver domain; residue number not given)
B7: CFP–ArcA / YFP–ArcA, phosphorylated (natural protein)
chain: MQTPHILIVEDELVTRNTLKSIFEAEGYDVFEATDGAEMHQILSEYDINLVIMDINLPGKNGLLLARELREQANVALMFLTGRDNEVDKILGLEIGADDYITKPFNPRELTIRARNLLSRTMNLGTVSEERRSVESYKFNGWELDINSRSLIGPDGEQYKLPRSEFRAMLHFCENPGKIQSRAELLKKMTGRELKPHDRTVDVTIRRIRKHFESTPDTPEIIATIHGEGYRFCGDLED
modifications: phosphorylated in vitro with phosphoramidate and MgSO4 (conserved aspartate of the receiver domain; residue number not given)
B8: CFP–PhoP / YFP–PhoP, phosphorylated (natural protein)
chain: MRVLVVEDNALLRHHLKVQIQDAGHQVDDAEDAKEADYYLNEHIPDIAIVDLGLPDEDGLSLIRRWRSNDVSLPILVLTARESWQDKVEVLSAGADDYVTKPFHIEEVMARMQALMRRNSGLASQVISLPPFQVDLSRRELSINDEVIKLTAFEYTIMETLIRNNGKVVSKDSLMLQLYPDAELRESHTIDVLMGRLRKKIQAQYPQEVITTVRGQGYLFELR
modifications: phosphorylated in vitro with phosphoramidate and MgSO4 (conserved aspartate of the receiver domain; residue number not given)
B9: CFP–CusR / YFP–CusR, phosphorylated (natural protein)
chain: MKLLIVEDEKKTGEYLTKGLTEAGFVVDLADNGLNGYHLAMTGDYDLIILDIMLPDVNGWDIVRMLRSANKGMPILLLTALGTIEHRVKGLELGADDYLVKPFAFAELLARVRTLLRRGAAVIIESQFQVADLMVDLVSRKVTRSGTRITLTSKEFTLLEFFLRHQGEVLPRSLIASQVWDMNFDSDTNAIDVAVKRLRGKIDNDFEPKLIQTVRGVGYMLEVPDGQ
modifications: phosphorylated in vitro with phosphoramidate and MgSO4 (conserved aspartate of the receiver domain; residue number not given)

Biological target: PhoB (Escherichia coli) (UniProt P0AFJ5)
Assay: not given
Conditions: cited from earlier work

Chain of PhoB (Escherichia coli) (P0AFJ5 whole entry): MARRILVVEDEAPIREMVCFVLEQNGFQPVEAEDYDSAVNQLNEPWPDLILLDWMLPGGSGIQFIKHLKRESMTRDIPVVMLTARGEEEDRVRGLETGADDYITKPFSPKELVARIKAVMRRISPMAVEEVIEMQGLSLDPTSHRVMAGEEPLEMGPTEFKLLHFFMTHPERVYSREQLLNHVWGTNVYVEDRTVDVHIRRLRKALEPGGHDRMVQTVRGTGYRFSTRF

Q: For PhoB (from UniProt P0AFJ5), which Kd is on record?
A: 378 µM

Biological target: PhoB (Escherichia coli) (UniProt P0AFJ5)
Assay: analytical ultracentrifugation
Conditions: cited from earlier work

Q: For PhoB (from UniProt P0AFJ5), which Kd is on record?
A: 5.1 µM

Biological target: the molecule itself
Assay: FRET or BRET
Conditions: not given

Q: Does B1 bind?
A: binds

Q: Does B2 bind?
A: binds

Q: Does B3 bind?
A: binds

Q: Does B4 bind?
A: binds

Q: Does B5 bind?
A: binds

Q: Does B6 bind?
A: binds

Q: Does B7 bind?
A: binds

Q: Does B8 bind?
A: binds

Q: Does B9 bind?
A: binds

— paper PMC2586830 (Molecular Microbiology, 2008)
